Experiments:
gB on HCMV whole virion = gB on HCMV whole virion (Human cytomegalovirus, virion strain …, UniProt P06473); test: ELISA; inactivated virion (2 μg/mL) coated; 2-fold serially diluted IgG, Fab or (Fab)2, 90 min RT; HRP goat anti-human (Fab)2; conditions: one partner purified
gB P_(064-083) = target: T1, gB P_(064-083) (Human cytomegalovirus, strain AD169); test: ELISA; conditions: both partners purified
T1 construct: source: synthetic peptide
T1 chain: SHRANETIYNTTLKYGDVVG

[1] = target: T2, biotinylated full-length peptide, residues 59–88 of gB (Human cytomegalovirus AD169, UniProt P06473); test: ELISA; conditions: both partners purified
T2 construct: also called full-length peptide (white column); source: synthetic peptide, bought: JPT Peptide Technologies
T2 chain: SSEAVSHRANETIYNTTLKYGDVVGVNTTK

[2] = target: T3, gB 15-mer library peptide, residues 69-83 (Human cytomegalovirus, strain AD169); test: ELISA; conditions: both partners purified
T3 construct: source: synthetic peptide, bought: JPT Peptide Technologies
T3 chain: ETIYNTTLKYGDVVG

gB-p17 [3] = target: T4, gB-p17 (Human cytomegalovirus, strain AD169); test: ELISA; conditions: both partners purified
T4 chain: HRANETIYNTTLKYG

gB-p17 [4] = target: T4, gB-p17; test: crystal structure; conditions: both partners purified

Sequence of gB on HCMV whole virion (P06473 32-906): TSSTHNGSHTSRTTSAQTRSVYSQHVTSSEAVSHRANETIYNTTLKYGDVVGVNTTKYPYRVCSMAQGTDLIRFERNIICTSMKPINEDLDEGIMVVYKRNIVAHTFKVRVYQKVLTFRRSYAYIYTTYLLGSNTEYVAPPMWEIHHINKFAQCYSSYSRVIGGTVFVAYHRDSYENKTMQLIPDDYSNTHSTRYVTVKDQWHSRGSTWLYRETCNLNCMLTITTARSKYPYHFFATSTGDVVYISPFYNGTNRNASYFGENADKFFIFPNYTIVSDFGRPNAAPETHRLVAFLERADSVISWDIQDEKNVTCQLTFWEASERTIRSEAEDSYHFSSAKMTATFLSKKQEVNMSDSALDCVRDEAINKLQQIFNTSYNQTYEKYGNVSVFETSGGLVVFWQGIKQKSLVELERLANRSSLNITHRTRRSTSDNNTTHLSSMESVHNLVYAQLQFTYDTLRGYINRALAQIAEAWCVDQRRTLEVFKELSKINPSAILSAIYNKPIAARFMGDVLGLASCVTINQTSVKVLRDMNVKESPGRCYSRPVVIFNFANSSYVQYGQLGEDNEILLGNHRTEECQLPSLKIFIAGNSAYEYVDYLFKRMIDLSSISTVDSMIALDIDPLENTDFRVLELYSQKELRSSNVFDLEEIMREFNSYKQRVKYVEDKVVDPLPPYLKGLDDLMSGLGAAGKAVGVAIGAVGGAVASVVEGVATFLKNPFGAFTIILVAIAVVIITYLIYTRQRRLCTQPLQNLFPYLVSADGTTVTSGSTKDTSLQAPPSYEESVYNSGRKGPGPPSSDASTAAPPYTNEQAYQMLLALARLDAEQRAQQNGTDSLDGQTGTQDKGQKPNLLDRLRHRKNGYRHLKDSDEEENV

B1: 3–25 IgG (antibody, V domains shown)
VH: QVQLVESGGGVVQPGRSLRLSCAASGFTFSNHGLHWVRQPPGKGLEWVAVVSKDGTNEHYADSVRGRFTISRDNSKNTLYLLMKSLRLEDTAVYYCAREGYCGDDRCYSGQPDYWGQGILVTVSS
VL: EIVLTQFPATLSLSPGERATLSCRASQSVGRYLAWYQQKPGQAPRLLIYDSSNRATGVPARFSGSGSGTDFTLSISSLEPEDFAVYFCQQRSHWPPLTFGGGTKVEIK
EC50 (gB on HCMV whole virion): 18.9 nM | binding result (gB P_(064-083)): binds | binding result [1]: binds | binding result [2]: binds | binding result (gB-p17 [3]): binds

B2: 3–25 Fab (Fab, V domains shown)
VH: B1 VH
VL: B1 VL
binding result (gB-p17 [4]): binds | EC50 (gB on HCMV whole virion): 66.9 nM
